Measurements taken from the DeepSol protein solubility set.

Experiment: soluble on expression in E. coli; label from the status in PepcDB or PDB records

Sequence | soluble on expression in E. coli
MEKIIVRGGKQLNGSVKMEGAKNAVLPVIAATLLASKGTSVLKNVPNLSDVFTINEVLKYLNADVSFVNDEVTVDATGEITSDAPFEYVRKMRASIVVMGPLLARTGSARVALPGGCAIGSRPVDLHLKGFEAMGAVVKIENGYIEATAEKLVGAKVYLDFPSVGATQNIMMAATLAEGTTVIENVAREPEIVDLANFLNQMGARVIGAGTEVIRIEGVKELTATEHSIIPDRIEAGTFMIAAAITGGNVLIEDAVPEHISSLIAKLEEMGVQIIEEENGIRVIGPDKLKAVDVKTMPHPGFPTDMQSQMMVIQMLSEGTSIMTETVFENRFMHVEEMRRMNADMKIEGHSVIISGPAKLQGAEVAATDLRAAAALILAGLVADGYTQVTELKYLDRGYNNFHGKLQALGADVERVDDSKVDVTNLASLF | not soluble
MEKIKYGFGEIEAAASDIQSTSGRINSLLEDLKAHIRPMAAAWEGESAQAYNEAQQQWDSSAAELNTILSTISNTVRQGNDRMSEVNRMAAASWS | not soluble
MEKKIGFIGCGNMGKAILGGLIASGQVLPGQIWVYTPSPDKVAALHDQYGINAAQSAQEVAQVADIVFGAVKPGIMVKVLSEISSSLNKDSLVVSIAAGVTLDQLARALGHDRKIIRAMPNTPSLVNAGMTSVTPNALVTPEDTADVLNIFRCFGGAEVIAEPMIHPVVGVSGSSPAYVFMFIEAMADAAVLGGMPRAQAYKFAAQAVMGSAKMVLETGKHPGELKDMVCSPGGTTIEAVRVLEERGFRAAVIEAMTKCMEKSEALSKSLEHHHHHH | soluble
MEKKITGYTTVDISQWHRKEHFEAFQSVAQCTYNQTVQLDITAFLKTVKKNKHKFYPAFIHILARLMNAHPEFRMAMKDGELVIWDSVHPCYTVFHEQTETFSSLWSEYHDDFRQFLHIYSQDVACYGENLAYFPKGFIENMFFVSANPWVSFTSFDLNVANMDNFFAPVFTMGKYYTQGDKVLMPLAIQVHHAVCDGFHVGRMLNELQQYCDEWQGGA | soluble
MEKKVGTDRVKRGMAQMQKGGVIMDVVNAEQAKIAEEAGAVAVMALERVPSDIRAAGGVARMADPRIVEEVMNAVSIPVMAKARIGHITEARVLEAMGVDYIDESEVLTPADDEFHLLKSDFTVPFVCGCRDIGEALRRIGEGAAMLRTKGEPGTGNIVEAVRHMRQVNGQIRQIASMTDDELMVAAKNFGAPYELVKEIKTLGKLPVVNFAAGGVATPADAALMMELGADGVFVGSGIFKSDNPAKFASAIVQATTYYTDYE | not soluble
MEKKVLLTGFDPFGGETVNPSWEAVKRLNGAAEGPASIVSEQVPTVFYKSLAVLREAIKKHQPDIIICVGQAGGRMQITPERVAINLNEARIPDNEGNQPVGEDISQGGPAAYWTGLPIKRIVEEIKKEGIPAAVSYTAGTFVCNHLFYGLMDEISRHHPHIRGGFIHIPYIPEQTLQKSAPSLSLDHITKALKIAAVTAAVHEDDIETGGGELH | soluble
MEKLENFWTRDELNTFFDYVTPERDVEQFTMFRVLAYSGIRKGELLALTWKDINFEDNTLRVNKTLTQGLGGKLIVQPPKSRAGRRTIDLDDSTMRYLRQWKGVQRETFLGMGFNTNNVDQLVFASNRNHFRSMNTPTKWLNKAIKATGLKHISIHGFRHTHASLLYQSGVGLKETQQRLGHSRADSSVTLDVYTHTTEQQNVAALQRFENYVEAKLEHHHHHH | not soluble
MEKNKLRKVGLTALEWLKQHPEIKQHKESSLYEQLFASQQWQQAQTIGMIRSLPLELSTQPIFERAMQESKQVAVPRTFKGGKMHFYQVFPETVYDTSAFGVEEPPLTAAEITATAIDLLIVPGIVFNRAGYRIGFGGGFYDRYLEHFSGHSCSLVFSEQLHEQWQPEAFDQPIEQLFIQLEHHHHHH | not soluble
MEKPHVVSLIGGFGYREPIFRKVLTTAMLDPGINYTLISGPSLDPSKLGGVPKNVRILNFVEDTYPYIKSSDAVIAPGGHSTIMEALSFGVPILSFPDEGHSEQESNAAVVEEEGYGRMLSYSTPPEVILECIREVIEDEAYRNKVERLQRLSGELEHHHHHH | not soluble
MEKSAGRGRPSVSVERIVATALEAVDEVGAQAFNMRMLAERLGSGTATLYRHFASKDEILIYVVDSVLGELLADQPEAVELVPQGQGSEGYSWQKACASGAERLYGVLRRHPGILPLLVSQIPIGPNGLKRREQGIALFLANGFPAELAARAYTSVAHYVLGFAIQQHSSASSEAAEGEELVEFFAALDASEYPAIATAGRHLPGISVEEEFRFGLKLIIDGLELAASAWRKADGC | not soluble
MEKTTEGAFYTREYRNLFKEFGYSEAEIQERVKDTWEQLFGDNPETKIYYEVGDDLGYLLDTGNLDVRTAGMSYGMMMAVQMDRKDIFDRIWNWTMKNMYMTEGVHAGYFAWSCQPDGTKNSWGPAPDGEEYFALALFFASHRWGDGDEQPFNYSEQARKLLHTCVHNGEGGPGHPMWNRDNKLIKFIPEVEFSDPSYHLPHFYELFSLWANEEDRVFWKEAAEASREYLKIACHPETGLAPEYAYYDGTPNDEKGYGHFFSDSYRVAANIGLDAEWFGGSEWSAEEINKIQAFFADKEPEDYRRYKIDGEPFEEKSLHPVGLIATNAMGSLASVDGPYAKANVDLFWNTPVRTGNRRYYDNCLYLFAMLALSGNFKIWFPEGQEEEHLEHHHHHH | soluble
MEKVNEILSQLTLEEKVKLVVGVGLPGLFGNPHSRVAGAAGETHPVPRVGLPAFVLADGPAGLRINPTRENDENTYYTTAFPVEIMLASTWNRELLEEVGKAMGEEVREYGVDVLLAPAMNIHRNPLCGRNFEYYSEDPVLSGEMASSFVKGVQSQGVGACIKHFVANNQETNRMVVDTIVSERALREIYLRGFEIAVKKSKPWSVMSAYNKLNGKYCSQNEWLLKKVLREEWGFEGFVMSDWYAGDNPVEQLKAGNDLIMPGKAYQVNTERRDEIEEIMEALKEGKLSEEVLDECVRNILKVLVNAPSFKNYRYSNKPDLEKHAKVAYEAGAEGVVLLRNEEALPLSENSKIALFGTGQIETIKGGTGSGDTHPRYAISILEGIKERGLNFDEELAKTYEDYIKKMRETEEYKPRRDSWGTIIKPKLPENFLSEKEIHKLAKKNDVAVIVISRISGEGYDRKPVKGDFYLSDDETDLIKTVSREFHEQGKKVIVLLNIGSPVEVVSWRDLVDGILLVWQAGQETGRIVADVLTGRINPSGKLPTTFPRDYSDVPSWTFPGEPKDNPQKVVYEEDIYVGYRYYDTFGVEPAYEFGYGLSYTTFEYSDLNVSFDGETLRVQYRIENTGGRAGKEVSQVYIKAPKGKIDKPFQELKAFHKTRLLNPGESEEVVLEIPVRDLASFNGEEWVVEAGEYEVRVGASSRNIKLKGTFSVGEERRFKP | soluble
MEKYEELFARIKEKAKLIDEKIFELIPEKDPRVLYEAARHYPLAGGKRVRPFVVLTSTEAVGGDPLRAIYPAVAIELIHNYSLVHDDIMDMDETRRGKPTVHRIWGVNMAILAGDLLFSKAFEAVARAEIPPEKKARVLEVIVKASNELCEGQARDLEFEKKSTVTIEEYMEMISGKTGALFEASAKVGGIIGTDNEEYIKALSSWGRNVGIAFQIWDDVLDLIADEKKLGKPVGSDIRKGKKTLIVAHFFENADEKDKQRFLKIFGKYAGDVKGRGIIEEDIKSDVMEAIDLLKKYGSIDYAAEIAKDMIKKANEALRILPKSKARMDLELLAKFIVEREY | soluble
MELKKRSEFPENELWDLTALYKDRQDFLLAIEKALQDIDLFKRNYEGRLTSVDDFTQALIEIEHIYIQMSHIGTYAFMPQTTDFSDESFAQIAQAGDDFMTKASVALSFFDTALANADLDVLDTLEKNPYFSAAIRMAKIQKEHLLSPDVEKALANLREVINAPYDIYTKMRAGDFDMDDFEVDGKTYKNSFVSYENFYQNHENAEIREKAFRSFSKGLRKHQNTAAAAYLAKVKSEKLLADMKGYASVFDYLLAEQEVDRSLFDRQIDLIMTEFGPVAQKFLKHVAQVNGLEKMTFADWKLDIDNDLNPEVSIDGAYDLVMKSLAPLGQEYTKEIERYQTERWVDFAANANKDSGGYAADPYKVHPYVLMSWTGRMSDVYTLIHEIGHSGQFIFSDNHQSYFNTHMSTYYVEAPSTFNELMLSDYLEHQFDDPRQKRFALAHRLTDTYFHNFITHLLEAAFQRKVYTLIEEGGTFGADQLNAMMKEVLTDFWGDAVDIDDDAALTWMRQAHYYMGLYSYTYSAGLVISTAGYLNLKHNPNGAKEWLDFLKSGGSRTPLDTAMLIGADIATEKPLRDTIQFLSDTVDQIISYTEDMSHA | soluble
MELKPTAPPIFTGRPFVVAWDVPTQDCGPRLKVPLDLNAFDVQASPNEGFVNQNITIFYRDRLGLYPRFDSAGRSVHGGVPQNVSLWAHRKMLQKRVEHYIRTQESAGLAVIDWEDWRPVWVRNWQDKDVYRRLSRQLVASRHPDWPPDRIVKQAQYEFEFAAQQFMLETLRYVKAVRPRHLWGFYLFPDCYNHDYVQNWESYTGRCPDVEVARNDQLAWLWAESTALFPSVYLDETLASSRHGRNFVSFRVQEALRVARTHHANHALPVYVFTRPTYSRRLTGLSEMDLISTIGESAALGAAGVILWGDAGYTTSTETCQYLKDYLTRLLVPYVVNVSWATQYCSRAQCHGHGRCVRRNPSASTFLHLSTNSFRLVPGHAPGEPQLRPVGELSWADIDHLQTHFRCQCYLGWSGEQCQWDHRQAAGGASEAWAGSHLTSLLALAALAFTWTL | not soluble
MELLRPEATVLSLGRRVLSFDREGRPYHYFREGKTYKRALDGSLHLRYREGERRRRRLAPEEALGVYQEVLDLAEAHLRDERRREEVLRWTPEGLLDPTPYRRAYAWPVSILPPDAYLSVVLQATTGCTWNRCAFCSFYQDRPFQKRTPEAFREHIQAVLALLGRGRLLRRGVFLADGNALALSEPLLPLLELVRAHFPGEPVMGFLDLFTGLKKAPSWWERLGGMGLRRVYIGLETGHAPLLALLRKPGHPKEVLPLVRALKSSGLSVGVILMVGSGGKAFAEAHFRESLALLAELPLGRGDVVYLSPFREDPGTPYAALGLAPLEDLEGELQRWAQAVRRLGLRASRYEIRE | soluble
MELTAVPATQFSSVQLTDILNACFEAYLVPVTQSVEGFVQRFSAEGMSLVDSRVWLAGDEPAAIAIVARRGSAARLAAFALRPAWRGKGLGRKLMQELLMLLQQQGIETVYLEVIRDNHAAVALYQSLGFTRRYGLCGYLSTELLAPVPGVLQLYPTLSLLRRAIEESNSQLPWLLDPLTFATLPCQVVTLEQRAFAVLTTAGSRPVLSFLWVEPAARRQGLARELLMALAQQFPGIGTSVTVPETFTPLFAAAGYTPLSLQQYEMTMDLADAKSA | not soluble
MELTLHEARVIGCLLEKEVTTPEQYPLSLNALTLACNQKTSREPVLELTEAQVQDALDSLNKKRLISEQSGFGSRVVKYKHRFCNTEFSELQLSTAAVAIVCLLLLRGPQTPGELRTRSNRLHDFKDVLEVEACIKQLMERDKPVLTQLPREPGKRECRYTELFSQGSEQVSATSLSADSPSADSNSLNAQDRQQLEARVTQLEGQVAELKDKLESLIASLS | soluble
MELVATQDGFVGEMARGFTFQALGEVAAGFGKRLQAEGIPRVVVGHDARFLAREMAEHAAGVLGGLGLEVHLLQGPAPLPLFGFALRAKEAAGLYLTGSRRPFAFQGVKLRLGPGRPLPREGGGPRTPPSPGPFAPLEARRDYLDHLRKSAQGLALKRGVVYLDAMGGAGGGILGQVLKRLEAPVELRELHPLPHPLFYGVAPDPRPEHLRTLRLLLREAKPPALGLALDGDADRLGVYLPGGEALPGDQALARLREAAQGREVEALGEGAYRFPWHLEEPDPFLAALLLMGVLL | soluble
